Patent publication US20150164984A1, “Colicins for Treating Bacterial Infections” (The University Court of the University of Glasgow, priority 2012, published 2015)

Legend:
[1] = system: adherent invasive E. coli isolates (AIEC) 95, 419, 615 and LF82; test: spot test of purified colicin on a growing lawn of cells (zones of inhibition); type: cell-based; conditions: isolates 95, 419, 615 and LF82; 2 μl drop of 0.2 mg/ml colicin, 18 h
Procedure: Briefly, 25 μl of a log phase bacterial culture (OD600=0.6) was added to 5 ml of molten 0.8% agarose and poured on top of an LB agar plate. A 2 μl drop of each colicin (0.2 mg/ml) was spotted onto the overlay plate. The plates were incubated for 18 h and examined for zones of inhibition. All E. coli isolates tested were sensitive to the cytotoxic activity of the four colicin proteins, as indicated by the presence of clear zones representing cell killing (not shown).

[2] = system: AIEC in the biofilm state; test: MBEC biofilm assay, viability by XTT; type: cell-based, E. coli; conditions: for ability to kill AIEC in the biofilm state: 6 additional strains of AIEC; for antimicrobial activity against biofilm-associated cells compared with ampicillin, metronidazole and rifaximin: all isolates; for relative effectiveness among colicins in killing AIEC in the biofilm state: multiple AIEC strains
From the text: The clinically relevant state for AI E. coli in the infected gut mucosa is the biofilm state in which bacteria show enhanced tolerance to antibiotics. We therefore tested the ability of colicins to kill AI E. coli in the biofilm state using the MBEC Physiology and Genetics Assay (Innovotech). In this assay, biofilm growth occurs on 96 identical pegs protruding from the lid of a 96-well microtitre plate.
To determine the cytotoxicity of colicins against LF82 biofilms we compared the % cell survival of AIEC in biofilms treated with colicins with those exposed to antibiotics which are frequently prescribed in the treatment of Crohn's disease (FIG. 1). Biofilms were formed on the MBEC™ 96-peg plate platform for 24 h, then challenged for 1 h with 150 μl dilutions of the antibiotics (ampicillin, ciprofloxacin, metronidazole and rifaximin) and colicins (E1, E3, E9 and D) in sterile PBS in the concentration range 0.002 μg/ml-200 μg/ml. All dilutions of antimicrobials were done in triplicate and control antimicrobial-free biofilms were treated with 150 μl of sterile PBS. Following treatment, the viability of biofilm-associated cells was tested using the metabolic dye XTT. The XTT salt changes colour when it is metabolised by viable cells. This colour change can be compared to untreated antimicrobial-free biofilms, giving an indication of the percentage survival in biofilms exposed to the antimicrobials.
We further tested the ability of colicins E1 (a pore-forming colicin) E3 (a rRNase), E9 (a DNase), D (a tRNase) and IA (a pore-forming colicin) to kill 6 additional strains of AIEC in the biofilm state.

[3] = target: outer membrane receptor BtuB (Escherichia coli, UniProt P06129); conditions: read-out: affinity for outer membrane receptor BtuB; Housden et al., 2005; cited from earlier work
outer membrane receptor BtuB, sequence (P06129 21-614): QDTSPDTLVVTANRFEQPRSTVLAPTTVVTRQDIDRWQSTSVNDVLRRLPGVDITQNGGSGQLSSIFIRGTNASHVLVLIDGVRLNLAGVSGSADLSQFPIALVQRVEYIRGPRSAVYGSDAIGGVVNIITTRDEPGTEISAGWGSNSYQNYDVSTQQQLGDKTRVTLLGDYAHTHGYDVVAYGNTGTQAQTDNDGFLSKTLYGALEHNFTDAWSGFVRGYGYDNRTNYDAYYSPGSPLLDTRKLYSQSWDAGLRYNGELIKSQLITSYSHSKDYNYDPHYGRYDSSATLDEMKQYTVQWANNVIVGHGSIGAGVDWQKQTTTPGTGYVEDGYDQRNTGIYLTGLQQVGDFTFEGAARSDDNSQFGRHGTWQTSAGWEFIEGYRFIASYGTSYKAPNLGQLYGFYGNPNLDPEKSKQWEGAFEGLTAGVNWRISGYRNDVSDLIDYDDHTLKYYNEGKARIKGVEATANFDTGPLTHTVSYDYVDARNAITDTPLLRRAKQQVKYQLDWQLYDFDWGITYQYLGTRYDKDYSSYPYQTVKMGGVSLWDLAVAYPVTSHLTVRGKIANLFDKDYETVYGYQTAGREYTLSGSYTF

[4] = system: intracellular E. coli LF82 in infected murine macrophages (J774); test: macrophage model of AIEC infection, colony counts of intracellular bacteria; type: cell-based; conditions: for killing of intracellular LF82 in infected macrophages: infected macrophages treated for 4 and 24 hours, FIG. 4
Procedure: AI E. coli are able to infect and replicate within macrophages and epithelial cells. To determine if colicin E1 is able to kill intracellular bacteria raw murine macrophages (J774) were infected with AI E. coli LF82 and treated with colicin E1 (FIG. 3).
Raw murine macrophages (J774) were grown in 24-well tissue culture plates in RPMI tissue culture media (containing 3% fetal calf serum, 1% […], 1% pen/strep) at 37° C. in 5% CO2 until the cells reached 70-80% confluency. The macrophages were then infected with E. coli LF82 at a multiplicity of infection of 50 (MOI 50). After 2 h of infection, the macrophages were exposed to the antibiotic gentamicin (100 μg/ml) to kill any bacteria outside the macrophage which hadn't successfully invaded the cell. The LF82-infected macrophages were then treated with colicin E1 (10, 0.1, 0.001 μg/ml) for 3 h at 37° C. The macrophages were then scraped from the surface of the plate, lysed with Triton X and the intra-cellular bacteria were plated on LB agar containing 50 μg/ml ampicillin for selection of LF82. The plates were incubated overnight at 37° C. and colony counts were performed.
Experiments were performed as described for colicin E1 except that infected macrophages were treated with colicin for 4 and 24 hours.

Row | Molecule | sensitivity of AIEC isolates in spot tests [1] | ability to kill AIEC in the biofilm state [2] | Kd [3] [nM] | killing of intracellular LF82 in infected macrophages [4] | antimicrobial activity against biofilm-associated cells compared with ampicillin, metronidazole and rifaximin [2] | relative effectiveness among colicins in killing AIEC in the biofilm state [2] | reduction in the number of bacteria recovered from the macrophages ([4]; 10 μg/ml, 3 h, LF82-infected J774 macrophages) [%]
1 | Colicin E3 (protein, listed as Escherichia coli) MSGGDGRGHNTGAHSTSGNINGGPTGLGVGGGASDGSGWSSENNPWGGGSGSGIHWGGGSGHGNGGGNGNSGGGSGTGGNLSAVAAPVAFGFPALSTPGAGGLAVSISAGALSAAIADIMAALKGPFKFGLWGVALYGVLPSQIAKDDPNMMSKIVTSLPADDITESPVSSLPLDKATVNVNVRVVDDVKDERQNISVVSGVPMSVPVVDAKPTERPGVFTASIPGAPVLNISVNNSTPAVQTLSPGVTNNTDKDVRPAGFTQGGNTRDAVIRFPKDSGHNAVYVSVSDVLSPDQVKQRQDEENRRQQEWDATHPVEAAERNYERARAELNQANEDVARNQERQAKAVQVYNSRKSELDAANKTLADAIAEIKQFNRFAHDPMAGGHRMWQMAGLKAQRAQTDVNNKQAAFDAAAKEKSDADAALSSAMESRKKKEDKKRSAENNLNDEKNKPRKGFKDYGHDYHPAPKTENIKGLGDLKPGIPKTPKQNGGGKRKRWTGDKGRKIYEWDSQHGELEGYRASDGQHLGSFDPKTGNQLKGPDPKRNIKKYL | sensitive | good killing activity |  |  |  |  | 
2 | Colicin E9 (protein, listed as Escherichia coli) MSGGDGRGHNTGAHSTSGNINGGPTGIGVSGGASDGSGWSSENNPWGGGSGSGIHWGGGSGRGNGGGNGNSGGGSGTGGNLSAVAAPVAFGFPALSTPGAGGLAVSISASELSAAIAGIIAKLKKVNLKFTPFGVVLSSLIPSEIAKDDPNMMSKIVTSLPADDITESPVSSLPLDKATVNVNVRVVDDVKDERQNISVVSGVPMSVPVVDAKPTERPGVFTASIPGAPVLNISVNDSTPAVQTLSPGVTNNTDKDVRPAGFTQGGNTRDAVIRFPKDSGHNAVYVSVSDVLSPDQVKQRQDEENRRQQEWDATHPVEAAERNYERARAELNQANEDVARNQERQAKAVQVYNSRKSELDAANKTLADAIAEIKQFNRFAHDPMAGGHRMWQMAGLKAQRAQTDVNNKQAAFDAAAKEKSDADAALSAAQERRKQKENKEKDAKDKLDKESKRNKPGKATGKGKPVGDKWLDDAGKDSGAPIPDRIADKLRDKEFKSFDDFRKAVWEEVSKDPELSKNLNPSNKSSVSKGYSPFTPKNQQVGGRKVYELHHDKPISQGGEVYDMDNIRVTTPKRHIDIHRGK | sensitive | good killing activity | 2 | able to kill intracellular LF82 | superior antimicrobial activity | most effective | 
3 | colicin E9 H575A: catalytically inactive colicin E9 variant (protein, UniProt P09883 1-582, looked up, variant H575A) Colicin-E9: MSGGDGRGHNTGAHSTSGNINGGPTGIGVSGGASDGSGWSSENNPWGGGSGSGIHWGGGSGRGNGGGNGNSGGGSGTGGNLSAVAAPVAFGFPALSTPGAGGLAVSISASELSAAIAGIIAKLKKVNLKFTPFGVVLSSLIPSEIAKDDPNMMSKIVTSLPADDITESPVSSLPLDKATVNVNVRVVDDVKDERQNISVVSGVPMSVPVVDAKPTERPGVFTASIPGAPVLNISVNDSTPAVQTLSPGVTNNTDKDVRPAGFTQGGNTRDAVIRFPKDSGHNAVYVSVSDVLSPDQVKQRQDEENRRQQEWDATHPVEAAERNYERARAELNQANEDVARNQERQAKAVQVYNSRKSELDAANKTLADAIAEIKQFNRFAHDPMAGGHRMWQMAGLKAQRAQTDVNNKQAAFDAAAKEKSDADAALSAAQERRKQKENKEKDAKDKLDKESKRNKPGKATGKGKPVGDKWLDDAGKDSGAPIPDRIADKLRDKEFKSFDDFRKAVWEEVSKDPELSKNLNPSNKSSVSKGYSPFTPKNQQVGGRKVYELHHDKPISQGGEVYDMDNIRVTTPKRAIDIHRGK |  |  |  | no killing |  |  | 
4 | Colicin E1 (protein, listed as Escherichia coli) METAVAYYKDGVPYDDKGQVIITLLNGTPDGSGSGGGGGKGGSKSESSAAIHATAKWSTAQLKKTQAEQAARAKAAAEAQAKAKANRDALTQRLKDIVNEALRHNASRTPSATELAHANNAAMQAEDERLRLAKAEEKARKEAEAAEKAFQEAEQRRKEIEREKAETERQLKLAEAEEKRLAALSEEAKAVEIAQKKLSAAQSEVVKMDGEIKTLNSRLSSSIHARDAEMKTLAGKRNELAQASAKYKELDELVKKLSPRANDPLQNRPFFEATRRRVGAGKIREEKQKQVTASETRINRINADITQIQKAISQVSNNRNAGIARVHEAEENLKKAQNNLLNSQIKDAVDATVSFYQTLTEKYGEKYSKMAQELADKSKGKKIGNVNEALAAFEKYKDVLNKKFSKADRDAIFNALASVKYDDWAKHLDQFAKYLKITGHVSFGYDVVSDILKIKDTGDWKPLFLTLEKKAADAGVSYVVALLFSLLAGTTLGIWGIAIVTGILCSYIDKNKLNTINEVLGI | sensitive | good killing activity |  |  | superior antimicrobial activity | most effective | ~80
5 | Colicin Ia (protein, listed as Escherichia coli) MSDPVRITNPGAESLGYDSDGHEIMAVDIYVNPPRVDVFHGTPPAWSSFGNKTIWGGNEWVDDSPTRSDIEKRDKEITAYKNTLSAQQKENENKRTEAGKRLSAAIAAREKDENTLKTLRAGNADAADITRQEFRLLQAELREYGFRTEIAGYDALRLHTESRMLFADADSLRISPREARSLIEQAEKRQKDAQNADKKAADMLAEYERRKGILDTRLSELEKNGGAALAVLDAQQARLLGQQTRNDRAISEARNKLSSVTESLNTARNALTRAEQQLTQQKNTPDGKTIVSPEKFPGRSSTNHSIVVSGDPRFAGTIKITTSAVIDNRANLNYLLSHSGLDYKRNILNDRNPVVTEDVEGDKKIYNAEVAEWDKLRQRLLDARNKITSAESAVNSARNNLSARTNEQKHANDALNALLKEKENIRNQLSGINQKIAEEKRKQDELKATKDAINFTTEFLKSVSEKYGAKAEQLAREMAGQAKGKKIRNVEEALKTYEKYRADINKKINAKDRAAIAAALESVKLSDISSNLNRFSRGLGYAGKFTSLADWITEFGKAVRTENWRPLFVKTETIIAGNAATALVALVFSILTGSALGIIGYGLLMAVTGALIDESLVEKANKFWGI |  | good killing activity |  |  |  |  | 
6 | Colicin D (protein, listed as Escherichia coli) MSDYEGSGPTEGIDYGHSMVVWPSTGLISGGDVKPGGSSGIAPSMPPGWGDYSPQGIALVQSVLFPGIIRRIILDKELEEGDWSGWSVSVHSPWGNEKVSAARTVLENGLRGGLPEPSRPAAVSFARLEPASGNEQKIIRLMVTQQLEQVTDIPASQLPAAGNNVPVKYRLMDLMQNGTQYMAIIGGIPMTVPVVDAVPVPDRSRPGTNIKDVYSAPVSPNLPDLVLSVGQMNTPVLSNPEIQEEGVIAETGNYVEAGYTMSSNNHDVIVRFPEGSDVSPLYISTVEILDSNGLSQRQEAENKAKDDFRVKKEEAVARAEAEKAKAELFSKAGVNQPPVYTQEMMERANSVMNEQGALVLNNTASSVQLAMTGTGVWTAAGDIAGNISKFFSNALEKVTIPEVSPLLMRISLGALWFHSEEAGAGSDIVPGRNLEAMFSLSAQMLAGQGVVIEPGATSVNLPVRGQLINSNGQLALDLLKTGNESIPAAVPVLNAVRDTATGLDKITLPAVVGAPSRTILVNPVPQPSVPTDTGNHQPVPVTPVHTGTEVKSVEMPVTTITPVSDVGGLRDFIYWRPDAAGTGVEAVYVMLNDPLDSGRFSRKQLDKKYKHAGDFGISDTKKNRETLTKFRDAIEEHLSDKDTVEKGTYRREKGSKVYFNPNTMNVVIIKSNGEFLSGWKINPDADNGRIYLETGEL | sensitive | good killing activity |  |  |  |  | 
